Results on one molecule are retold here after patent US20150148405A1, “Expression Construct for a Lin28-Resistant Let-7 Precursor MicroRNA” (THE JOHNS HOPKINS UNIVERSITY, priority 2012, published 2015).

Format in all cases: cell-based, mouse
The test system of one assay is mature miRNA. Briefly: miRNA profiling arrays (Taqman Rodent MicroRNA Array A). The note with it: BDNF 30 min, plus Actinomycin-D. The protocol: Murine hippocampal cultures were preincubated for 10-20 minutes with […] Actinomycin D and either mock- or BDNF- (100 ng/mL) stimulated for 30 minutes before harvesting.
For miRNA arrays, […] of total RNA for each sample was reverse-transcribed with stem-looped Megaplex RT Primers (Applied Biosystems) in a final volume of 7.5 μL according to manufacturer's instructions: preincubation at 4° C. for 5 min; 16° C. for 2 min, 42° C. for 1 min, 50° C. for 1 sec, 40 cycles; 85° C. for 5 min. The entire cDNA RT product (7.5 μk) was subjected to RT-qPCR on an Applied Biosystems 7900HT Fast Real-Time PCR system using Taqman Rodent MicroRNA Array A. Data were compiled in SDS RQ Manager 1.2.1 and analyzed in Data Assist 2.0 (Applied Biosystems); RQ was calculated as 2^−LCtBDNF/2^LCtmock where LCt=(cycle threshold for miRNA of interest)−(cycle threshold for reference control) (Schmittgen and Livak, 2008). Thresholds and cycle threshold (Ct) values were determined using default settings and the maximum allowable Ct value was set at 35.0 inclusive. Data were normalized by arithmetic mean using MammU6 (4395470) and snoRNA202 (4380914) reference RNAs as controls. miRNA array data are reposited with the NCBI Gene Expression Omnibus (GEO). […]
In general terms: Quantitative PCR measures a nucleic acid by following its amplification.

Assay [1] has as its system Let-7 family, miR-107, miR-143. The experiment in a line: Individual TaqMan RT-qPCR of mature miRNA levels. The note with it: BDNF vs mock, normalized to 18s rRNA. The protocol:
For individual microRNA abundance assays (Applied Biosystems), 100 ng of total isolated RNA was prepared for reverse transcription with stem-looped primers specific for individual mature miRNAs in a final volume of 15 μL according to manufacturer's protocol; 4° C. for 5 min, 16° C. for 30 min, 42° C. for 30 min, 85° C. for 5 min. and subjected to TaqMan MicroRNA Assays (Applied Biosystems) for Let-7a (assay ID: 000377), Let-7b (002619), Let-7e (002406), Let-7f1 (000382), miR-107 (000443) and miR-143 ([…]). RT-qPCR was performed using a Stratagene Mx3000P machine and software with quantities derived by standard-curve quantitation method. The abundance of non-coding 18s rRNA in each sample was used as an internal control to normalize all miRNA species.

The test system of assay [2] is Let-7 miRNA binding sites. Briefly: Let-7 luciferase reporter assay. As to conditions: BDNF 4 hr, transcription blockade; control reporters unchanged. The text has this:
Let-7 luciferase reporters (gift of G. Hannon) harbor a wildtype or a mutant Let-7 miRNA binding site. The Let-7 miRNA binding sites are derived from a short 3′UTR segment of C. elegans Lin41 mRNA containing two adjacent proven Let-7 miRNA biding sites and are cloned into 3′UTR of firefly luciferase in a pcDNA backbone. Mutations in seed regions of both Let-7 binding sites were made for a negative control reporter, which was documented not regulated by endogenous Let-7 miRNAs. Co-transfection of the pCSK-lacZ vector, which constitutively expresses β-galactosidase and is not regulated by shRNA, served to normalize transfection efficiency and extract recovery for each sample in all reporter assays. The DNA amounts used for each well (24 well plate) were 15 ng of any luciferase reporter, 85 ng of β-gal (CSK-LacZ), and/or 75-300 ng of CXCR4 shRNA. Each reporter experiment included extracts from cells transfected with pcDNA3.1 alone as a reference control. […] Cell lysates were collected in 1×lysis buffer (reporter lysis buffer, Promega), and luciferase (Promega) and chemiluminescent β-gal (Roche) reporter assays carried out according to manufacturer instructions using a plate-reading luminometer (Perkin Elmer). […] When required, fold change was calculated by dividing normalized stimulated samples by normalized unstimulated samples.

The test system of the next assay is cultured neurons. Briefly: 35S-labelling total protein synthesis. The note with it: mock or BDNF 100 ng/mL 2 hours, Actinomycin-D. As to the method: Cultured neurons were pre-incubated in media containing reduced-serum and Actinomycin-D as previously described, followed by washing and incubation for 10 min with methionine- and cysteine-free DMEM (Mediatech, Inc.), and ^35S labeling in the same DMEM with the addition of ^355-methionine/cysteine (^35S Met/Cys EasyTag Mix, Perkin Elmer) to a final concentration of […]. Mock- or BDNF stimulation was for 2 hours. Cells were washed and lysed with lysis buffer (see immunoblotting). Lysates were centrifuged and collected supernatants subjected to Bradford assay. To assess newly synthesized proteins, 200-500 μg of lysates proteins were precipitated with 10% trichloroacetic acid (TCA) for 1 hour on ice in the presence of 0.5% deoxycholate (DOC) to remove interfering phenol red. After centrifugation, protein pellets were washed with ice-cold 95% ethanol, solubilized in denaturing buffer ([…] Tris pH 8.3, 5 mM EDTA, 0.05% SDS, 6M urea), and subjected to liquid scintillation counting (Econofluor, New England Nuclear, Inc.). ^35S Disintegration per minute (DPM) was used to quantitate protein synthesis after subtraction of background readings.

B1: BDNF: brain-derived neurotrophic factor, a neurotrophin used to stimulate hippocampal neurons (protein, UniProt P23560 19-247, looked up)
Neurotrophic factor BDNF …: APMKEANIRGQGGLAYPGVRTHGTLESVNGPKAGSRGLTSLADTFEHVIEELLDEDQKVRPNEENNKDADLYTSRVMLSSQVPLEPPLLFLLEEYKNYLDAANMSMRVRRHSDPARRGELSVCDSISEWVTAADKKTAVDMSGGTVTVLEKVPVSKGQLKQYFYETKCNPMGYTKEGCRGIDKRHWNSQCRTTQSYVRALTMDSKKRIGWRFIRIDTSCVCTLTIKRGR
With B1, in the assay on mature miRNA, the “detectable miRNAs with significantly altered levels decreased to <50%” value is reported as 10.6% and the “detectable miRNAs with significantly altered levels increased more than 2-fold” value stood at 89.4%. For the same molecule, the “abundance of Let-7 family members, miR-107 and miR-143” value in assay [1] was “significant and reproducible BDNF-induced decreases in abundance”. The “luciferase reporter containing Let-7 binding sites” value in assay [2] is “significantly induced”. Moreover, the “total protein synthesis (35S incorporation)” value with cultured neurons is reported as “modest enhancement of total translation”.
